Reference: IntAct's records for PubMed 12612073

B1: Progesterone receptor (Homo sapiens), P06401-1 (parent)
chain: MTELKAKGPRAPHVAGGPPSPEVGSPLLCRPAAGPFPGSQTSDTLPEVSAIPISLDGLLFPRPCQGQDPSDEKTQDQQSLSDVEGAYSRAEATRGAGGSSSSPPEKDSGLLDSVLDTLLAPSGPGQSQPSPPACEVTSSWCLFGPELPEDPPAAPATQRVLSPLMSRSGCKVGDSSGTAAAHKVLPRGLSPARQLLLPASESPHWSGAPVKPSPQAAAVEVEEEDGSESEESAGPLLKGKPRALGGAAAGGGAAAVPPGAAAGGVALVPKEDSRFSAPRVALVEQDAPMAPGRSPLATTVMDFIHVPILPLNHALLAARTRQLLEDESYDGGAGAASAFAPPRSSPCASSTPVAVGDFPDCAYPPDAEPKDDAYPLYSDFQPPALKIKEEEEGAEASARSPRSYLVAGANPAAFPDFPLGPPPPLPPRATPSRPGEAAVTAAPASASVSSASSSGSTLECILYKAEGAPPQQGPFAPPPCKAPGASGCLLPRDGLPSTSASAAAAGAAPALYPALGLNGLPQLGYQAAVLKEGLPQVYPPYLNYLRPDSEASQSPQYSFESLPQKICLICGDEASGCHYGVLTCGSCKVFFKRAMEGQHNYLCAGRNDCIVDKIRRKNCPACRLRKCCQAGMVLGGRKFKKFNKVRVVRALDAVALPQPVGVPNESQALSQRFTFSPGQDIQLIPPLINLLMSIEPDVIYAGHDNTKPDTSSSLLTSLNQLGERQLLSVVKWSKSLPGFRNLHIDDQITLIQYSWMSLMVFGLGWRSYKHVSGQMLYFAPDLILNEQRMKESSFYSLCLTMWQIPQEFVKLQVSQEEFLCMKVLLLLNTIPLEGLRSQTQFEEMRSSYIRELIKAIGLRQKGVVSSSQRFYQLTKLLDNLHDLVKQLHLYCLNTFIQSRALSVEFPEMMSEVIAAQLPKILAGMVKPLLFHKK
B2: Estrogen receptor (Homo sapiens), P03372 (parent)
chain: MTMTLHTKASGMALLHQIQGNELEPLNRPQLKIPLERPLGEVYLDSSKPAVYNYPEGAAYEFNAAAAANAQVYGQTGLPYGPGSEAAAFGSNGLGGFPPLNSVSPSPLMLLHPPPQLSPFLQPHGQQVPYYLENEPSGYTVREAGPPAFYRPNSDNRRQGGRERLASTNDKGSMAMESAKETRYCAVCNDYASGYHYGVWSCEGCKAFFKRSIQGHNDYMCPATNQCTIDKNRRKSCQACRLRKCYEVGMMKGGIRKDRRGGRMLKHKRQRDDGEGRGEVGSAGDMRAANLWPSPLMIKRSKKNSLALSLTADQMVSALLDAEPPILYSEYDPTRPFSEASMMGLLTNLADRELVHMINWAKRVPGFVDLTLHDQVHLLECAWLEILMIGLVWRSMEHPGKLLFAPNLLLDRNQGKCVEGMVEIFDMLLATSSRFRMMNLQGEEFVCLKSIILLNSGVYTFLSSTLKSLEEKDHIHRVLDKITDTLIHLMAKAGLTLQQQHQRLAQLLLILSHIRHMSNKGMEHLYSMKCKNVVPLYDLLLEMLDAHRLHAPTSRGGASVEETDQSHLATAGSTSSHSLQKYYITGEAEGFPATV

Variants of: B1
Conditions: with esr1_human ESR1, P03372

Row | Variant | effect of a mutation on the interaction
1 | P422A;P423A;P426A | with no effect

Variants of: B1
Conditions: with src_human SRC

Row | Variant | effect of a mutation on the interaction
2 | P422A;P423A;P426A | disrupting interaction strength

Variants of: B2
Conditions: with PGR

Row | Variant | effect of a mutation on the interaction
3 | MTMTLHTKASGMALLHQIQGNELEPLNRPQLKIPLERPLGEVYLDSSKPAVYNYPEGAAYEFNAAAAANAQVYGQTGLPYGPGSEAAAFGSNGLGGFPPLNSVSPSPLMLLHPPPQLSPFLQPHGQQVPYYLENEPSGYTVREAGPPAFYRPNSDNRRQGGRERLASTNDKGSMAMESAKETRYCAVCNDYASGYHYGVWSCEGCKAFFKRSIQGHNDYMCPATNQCTIDKNRRKSCQACRLRKCYEVGMMKGGIRKDRRGGRMLKHKRQRDDGEGRGEVGSAGDMRAANLWPSPLMIKRSKKNSLALSLTADQMVSALLDAEPPILYSEYDPTRPFSEASMMGLLTNLADRELVHMINWAKRVPGFVDLTLHDQVHLLECAWLEILMIGLVWRSMEHPGKLLFAPNLLLDRNQGKCVEGMVEIFDMLLATSSRFRMMNLQGEEFVCLKSIILLNSGVYTFLSSTLKSLEEKDHIHRVLDKITDTLIHLMAKAGLTLQQQHQRLAQLLLILSHIRHMSNKGMEHLYSMKCKNVVPLFDLLLEMLDAHRLHAPTSRGGASVEETDQSHLATAGSTSSHSLQKYYITGEAEGFPATV [Y537F] | with no effect
